Experimental data reported in PMC6713926, “Structural Basis for Properdin Oligomerization and Convertase Stimulation in the Human Complement System” (Frontiers in Immunology, 2019).

Tests used:
Biotinylated C3b = biological target: T1, Biotinylated C3b (human, UniProt P01024 23-667; P01024 749-1663, biotin (Maleimide-PEG2-Biotin)); assay: BLI; biotinylated C3b on streptavidin sensors; FB variants at 40 μg/mL; 20 mM MES pH 6.0, 100 mM NaCl, 0.05% Tween, 1 mg/mL BSA, 5 mM MgCl2; conditions: both partners purified
T1 construct: complement C3, human, beta chain; complement C3, human, alpha' chain of C3b; also called biotin-C3b; immobilized C3b; source: made from plasma C3 by trypsin cleavage in the presence of Maleimide-PEG2-Biotin, purified by cation exchange
T1 sequence (P01024 23-667, chain 1 of 2): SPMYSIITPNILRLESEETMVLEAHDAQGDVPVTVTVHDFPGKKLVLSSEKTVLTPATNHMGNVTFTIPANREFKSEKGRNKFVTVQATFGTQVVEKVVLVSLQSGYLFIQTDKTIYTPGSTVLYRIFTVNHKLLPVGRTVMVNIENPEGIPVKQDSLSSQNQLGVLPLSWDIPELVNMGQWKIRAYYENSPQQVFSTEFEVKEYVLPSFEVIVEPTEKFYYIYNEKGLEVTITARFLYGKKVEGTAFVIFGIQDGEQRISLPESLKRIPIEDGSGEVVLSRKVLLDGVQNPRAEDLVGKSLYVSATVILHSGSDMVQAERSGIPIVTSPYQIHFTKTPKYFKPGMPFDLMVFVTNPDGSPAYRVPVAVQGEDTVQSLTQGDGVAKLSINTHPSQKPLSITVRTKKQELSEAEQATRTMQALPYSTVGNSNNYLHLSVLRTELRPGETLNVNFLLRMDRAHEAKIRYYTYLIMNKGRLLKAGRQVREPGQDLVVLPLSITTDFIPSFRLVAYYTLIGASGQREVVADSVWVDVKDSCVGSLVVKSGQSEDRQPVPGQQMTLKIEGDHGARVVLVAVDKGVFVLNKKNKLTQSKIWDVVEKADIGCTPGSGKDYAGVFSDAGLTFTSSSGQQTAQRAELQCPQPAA
T1 sequence (P01024 749-1663, chain 2 of 2): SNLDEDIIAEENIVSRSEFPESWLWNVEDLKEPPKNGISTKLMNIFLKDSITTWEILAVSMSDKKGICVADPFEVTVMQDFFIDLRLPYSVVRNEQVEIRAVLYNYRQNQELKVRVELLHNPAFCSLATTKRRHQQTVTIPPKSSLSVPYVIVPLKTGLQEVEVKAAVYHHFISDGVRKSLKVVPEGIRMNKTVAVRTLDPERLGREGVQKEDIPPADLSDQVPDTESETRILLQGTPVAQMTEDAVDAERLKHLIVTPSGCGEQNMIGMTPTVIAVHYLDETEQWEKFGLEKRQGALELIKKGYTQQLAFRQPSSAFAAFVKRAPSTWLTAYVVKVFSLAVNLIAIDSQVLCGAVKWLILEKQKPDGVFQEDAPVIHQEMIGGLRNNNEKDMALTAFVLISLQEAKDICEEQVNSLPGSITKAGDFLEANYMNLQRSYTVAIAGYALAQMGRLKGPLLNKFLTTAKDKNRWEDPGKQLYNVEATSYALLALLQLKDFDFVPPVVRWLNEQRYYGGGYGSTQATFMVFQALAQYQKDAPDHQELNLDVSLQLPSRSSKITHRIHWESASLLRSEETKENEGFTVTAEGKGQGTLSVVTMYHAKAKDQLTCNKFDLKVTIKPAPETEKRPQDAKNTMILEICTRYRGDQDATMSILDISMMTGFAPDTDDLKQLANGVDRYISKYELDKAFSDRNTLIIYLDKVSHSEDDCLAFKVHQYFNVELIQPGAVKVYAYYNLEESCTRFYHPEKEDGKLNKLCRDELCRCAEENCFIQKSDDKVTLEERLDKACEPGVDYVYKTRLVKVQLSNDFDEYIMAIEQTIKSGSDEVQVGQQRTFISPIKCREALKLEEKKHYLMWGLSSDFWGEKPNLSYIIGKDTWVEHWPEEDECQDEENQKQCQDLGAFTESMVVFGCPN

[1] = biological target: T2, WT FP, recombinant oligomeric properdin (human, UniProt P27918); assay: pull-down; 50 μg hFPNb1 added to HEK293F supernatants of WT FP or E244 mutants, captured on Ni-NTA beads, washed with 500 mM NaCl, eluted with 400 mM imidazole; conditions: one partner purified
T2 construct: properdin (FP), human, wild type; Secreted oligomers; preparations of ~50% dimer and 50% trimer, and of ~90% dimer and 10% trimer, were used; also called oligomeric FP; dimeric FP; source: also in cell supernatant
T2 sequence (P27918 28-469): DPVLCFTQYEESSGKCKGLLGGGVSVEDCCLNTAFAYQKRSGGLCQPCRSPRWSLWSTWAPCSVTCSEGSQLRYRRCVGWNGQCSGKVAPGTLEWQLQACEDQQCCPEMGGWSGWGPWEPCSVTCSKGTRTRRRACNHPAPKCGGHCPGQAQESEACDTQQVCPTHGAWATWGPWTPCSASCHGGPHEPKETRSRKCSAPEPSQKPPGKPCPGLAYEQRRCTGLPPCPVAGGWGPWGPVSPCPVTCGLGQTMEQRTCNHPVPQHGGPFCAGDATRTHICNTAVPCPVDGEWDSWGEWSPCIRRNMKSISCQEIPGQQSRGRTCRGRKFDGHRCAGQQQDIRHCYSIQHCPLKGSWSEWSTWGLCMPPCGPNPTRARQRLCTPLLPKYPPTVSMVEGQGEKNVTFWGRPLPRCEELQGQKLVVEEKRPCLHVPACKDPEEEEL

[2] = biological target: T3, FPhtΔ3, FP head-tail monomer without TSR3 (Homo sapiens, UniProt P27918); assay: crystal structure; C3bBbSCIN-FPhtΔ3-hFPNb1 complex, 6.2 Å; 100 mM NaCl, 5% PEG4000, 10 mM MgCl2, 100 mM sodium cacodylate pH 5.8; conditions: both partners purified
T3 construct: properdin (FP), human, TB-TSR2 (FPhΔ3), made from FPh by a stop codon between TSR2 and TSR3; properdin (FP), human, TSR4-6 tail fragment (FPt); The methods name FPhtΔ3 for the crystals with C3bBbSCIN and hFPNb1, the results FPcΔ3; also called FPcΔ3 (so called in the results for the nanobody complex); FPΔ3
T3 sequence (P27918 whole entry, looked up, stated change not applied, the tested form may be a part): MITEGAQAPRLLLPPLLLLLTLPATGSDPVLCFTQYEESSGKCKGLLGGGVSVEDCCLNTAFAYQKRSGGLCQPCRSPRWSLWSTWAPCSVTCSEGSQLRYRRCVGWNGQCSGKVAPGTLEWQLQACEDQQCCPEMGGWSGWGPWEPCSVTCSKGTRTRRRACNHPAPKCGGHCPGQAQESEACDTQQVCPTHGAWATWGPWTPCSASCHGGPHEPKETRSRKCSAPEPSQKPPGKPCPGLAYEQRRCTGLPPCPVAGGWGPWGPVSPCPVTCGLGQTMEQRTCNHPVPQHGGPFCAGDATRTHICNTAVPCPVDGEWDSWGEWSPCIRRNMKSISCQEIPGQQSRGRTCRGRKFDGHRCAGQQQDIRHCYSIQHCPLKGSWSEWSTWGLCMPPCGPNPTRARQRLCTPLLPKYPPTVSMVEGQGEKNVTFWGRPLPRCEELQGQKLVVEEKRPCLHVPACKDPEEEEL

Binder	binding result (Biotinylated C3b)	binding result [1]	binding result [2]
Recombinant FB D279G, S699A, K348A, L349A, K350A (enzyme, human, UniProt P00751 26-764, looked up, complement factor B (FB), human; also called FB AAA; 348-AAA-350) TPWSLARPQGSCSLEGVEIKGGSFRLLQEGQALEYVCPSGFYPYPVQTRTCRSTGSWSTLKTQDQKTVRKAECRAIHCPRPHDFENGEYWPRSPYYNVSDEISFHCYDGYTLRGSANRTCQVNGRWSGQTAICDNGAGYCSNPGIPIGTRKVGSQYRLEDSVTYHCSRGLTLRGSQRRTCQEGGSWSGTEPSCQDSFMYDTPQEVAEAFLSSLTETIEGVDAEDGHGPGEQQKRKIVLDPSGSMNIYLVLDGSGSIGASNFTGAKKCLVNLIEKVASYGVKPRYGLVTYATYPKIWVKVSEADSSNADWVTKQLNEINYEDHAAASGTNTKKALQAVYSMMSWPDDVPPEGWNRTRHVIILMTDGLHNMGGDPITVIDEIRDLLYIGKDRKNPREDYLDVYVFGVGPLVNQVNINALASKKDNEQHVFKVKDMENLEDVFYQMIDESQSLSLCGMVWEHRKGTDYHKQPWQAKISVIRPSKGHESCMGAVVSEYFVLTAAHCFTVDDKEHSIKVSVGGEKRDLEIEVVLFHPNYNINGKKEAGIPEFYDYDVALIKLKNKLKYGQTIRPICLPCTEGTTRALRLPPTTTCQQQKEELLPAQDIKALFVSEEEKKLTRKEVYIKNGDKKGSCERDAQYAPGYDKVKDISEVVTPRFLCTGGVSPYADPNTCRGDAGGPLIVHKRSRFIQVGVISWGVVDVCKNQKRQKQVPAHARDFHINLFQVLPWLKEKLQDEDLGFL	binds	–	–
hFPNb1, FP specific non-inhibitory nanobody (VHH, llama nanobody selected by phage display against FPc) VHH: QVQLVESGGGLVQAGGSLRLSCAASERTFTIYAMGWFRQAPGKEREFVAAISRSGENTDYADSVKGRFTISRDNNKNTISLQMNSLKPEDTAVYYCAAGRAILVHTTKKEYDHWGQGTQVTVSS	–	binds	binds
